The text below walks through data of patent WO2017102789A1 (dated 2017).

In this test the target is T1, human HER3 ECD (human, UniProt P21860 20-643).
T1 construct: also called hHER3-ECD; hu-HER3-ECD
Description: SPR (Biacore T100), antibody captured by anti-Fc gamma antibody, human HER3 ECD 0-1000 nM as analyte, 25°C, Langmuir 1:1 model.

Positions count from the first letter of the chain named.

B1: Mab 205.10.1 (antibody, V domains shown)
VH: QVQLVQSGAEVKKPGASVKVSCKASGYTFRSSYISWVRQAPGQGLEWMGWIYAGTGSPSYNQKLQGRVTMTTDTSTSTAYMELRSLRSDDTAVYYCARHRDYYSNSLTYWGQGTLVTVSS
VL: DIVMTQSPDSLAVSLGERATINCKSSQSLLNSGNQKNYLTWYQQKPGQPPKLLIYWASTRESGVPDRFSGSGSGTDFTLTISSLQAEDVAVYYCQSDYSYPYTFGQGTKLEIK
notes: Humanized anti-HER3 antibody; Only variable domains are tied to it
On to B1, for which the Kd – broadly, the free concentration of one partner at which half of the binding sites on the other are occupied at equilibrium, for simple one-to-one binding – worked out at 2 nM.

B2: Mab 205.10.3 (antibody, V domains shown)
VH: B1 VH
VL: B1 VL with A90S, V91I
notes: as for B1
Molecule B2 showed a Kd of 2 nM.
